Measured values reported in PMC5416766.

B1: APB-Junction (dsDNA)
DNA 1: TGAGGTTCAGCAAGGTGATGCTTTAGATTTTTC
DNA 2: AGGCGGTCAGTATTAACACCGCCTGCAACAGTGCCACGCTGAGAGCCAGCAGCAAATGAAAAATCTAAAGCATCACCTTGCTGAACCTCA
modifications: APB on phosphorothioate dCMP at primer nt 33
B2: dd-Junction (dsDNA)
DNA 1: TGAGGTTCAGCAAGGTGATGCTTTAGATTTTTCA
DNA 2: B1 DNA 2
modifications: 3' ddAMP (primer nt 34); APB on S-dCMP at primer nt 33

Legend:
CTF18-RFC;p261Nexo- = CTF18-RFC;p261Nexo- (human;human, UniProt Q8WVB6;Q9BVC3;P0CG13;P35250;P40938;P35249;P40937;Q07864 …, |D275A); test: photo-crosslinking
CTF18-RFC = CTF18-RFC (human, UniProt Q8WVB6;Q9BVC3;P0CG13;P35250;P40938;P35249;P40937 …); test: EMSA
CTF18-RFC;PCNA = CTF18-RFC;PCNA (human;human, UniProt Q8WVB6;Q9BVC3;P0CG13;P35250;P40938;P35249;P40937;P12004 …, |); test: EMSA

Binder	binding signal (CTF18-RFC;p261Nexo-)	binding result (CTF18-RFC)	binding result (CTF18-RFC;PCNA)
B1	~3 fold p261Nexo- crosslink vs alone (CTF18 5-fold)	–	–
B2	–	no binding	no binding
